Test results as given in WO2013190679A1 (dated 2013).
Blank lines part the entries; values can stand above or below the binder they belong to.

Experiments:
[1] = molecular target: T1, BSA (negative control, Sigma) (UniProt P02769 25-607); test: ELISA, BSA immobilised, HRP anti-V5 tag
[2] = molecular target: T2, recombinant human LOX-1 protein (61-273aa) (human, UniProt P78380 61-273); test: ELISA on immobilised LOX-1; protein concentration at the inflection point of a 4-parameter logistic fit
[3] = molecular target: T1, BSA (negative control, Sigma); test: ELISA, BSA immobilised, HRP anti-mouse IgG
[4] = molecular target: T2, recombinant human LOX-1 protein …; test: ELISA, LOX-1 (61-273aa) immobilised, HRP anti-mouse IgG

T1 sequence (P02769 25-607 limits assumed): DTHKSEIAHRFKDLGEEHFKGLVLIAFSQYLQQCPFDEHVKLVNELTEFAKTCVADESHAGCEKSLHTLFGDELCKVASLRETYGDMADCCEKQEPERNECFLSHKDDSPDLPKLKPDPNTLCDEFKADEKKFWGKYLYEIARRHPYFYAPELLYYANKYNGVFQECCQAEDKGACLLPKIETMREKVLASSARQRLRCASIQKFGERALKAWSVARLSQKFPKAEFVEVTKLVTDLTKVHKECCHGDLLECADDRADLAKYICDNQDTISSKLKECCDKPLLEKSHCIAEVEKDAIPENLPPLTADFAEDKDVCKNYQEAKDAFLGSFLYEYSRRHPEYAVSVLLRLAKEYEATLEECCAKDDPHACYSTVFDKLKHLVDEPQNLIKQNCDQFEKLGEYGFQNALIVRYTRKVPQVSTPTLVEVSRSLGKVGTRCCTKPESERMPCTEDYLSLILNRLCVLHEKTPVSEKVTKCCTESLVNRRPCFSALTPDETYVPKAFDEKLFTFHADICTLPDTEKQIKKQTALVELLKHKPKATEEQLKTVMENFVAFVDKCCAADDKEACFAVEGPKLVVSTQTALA

binding result [1]: no binding | EC50 [2]: 2.91 µg/mL
B1: Fv-type anti-LOX-1 antibody (scFv)
scFv: EVKLLESGGGLVQPGGSLKLSCAVSGFDFSRYWMSWVRQAPGKGLEWIGEINPDSSTINFTPSLKDKFIVSRDNAKNTLYLQMSKVRSEDTALYYCARNDVLLGAMDYWGQGTSVTVSSGGGGSGGGGSGGGGSDVLMTQTPLSLPVSLGDQASISCRSSQTIVHSNGKTYLEWYLQKPGQSPKLLIYKVSNRFSGVPDRFSGSGSGTDFTLKISRVEAEDLGVYYCFQGSHVPLTFGAGTKLELK
notes: The VH gene was amplified with the #10-1 heavy chain secretion signal; Expressed in FreeStyle 293 and purified by the His tag; also called Fv type antibody; Fv-type antibody; not shown: C-terminal V5 and 6xHis tag from the pEF6/V5/His vector

binding result [3]: no binding | binding result [4]: binds
B2: mouse anti-LOX-1 monoclonal antibody #10-1 (antibody, V domains shown)
VH: EVKLLESGGGLVQPGGSLKLSCAVSGFDFSRYWMSWVRQAPGKGLEWIGEINPDSSTINFTPSLKDKFIVSRDNAKNTLYLQMSKVRSEDTALYYCARNDVLLGAMDYWGQGTSVTVSS
VL: DVLMTQTPLSLPVSLGDQASISCRSSQTIVHSNGKTYLEWYLQKPGQSPKLLIYKVSNRFSGVPDRFSGSGSGTDFTLKISRVEAEDLGVYYCFQGSHVPLTFGAGTKLELK
notes: Whole mouse IgG1, kappa from the hybridoma; also called anti-LOX-1 antibody #10-1; IgG type of mouse anti-LOX-1 antibody #10-1
